We go through 13 sequences from the supplement of paper PMC9170038.

The test system of the data set is MS2 coat protein. The data set can be described thus: apparent KD of MS2 coat protein; designed switch direction (-1 OFF switch, 1 ON switch): -1; higher = weaker reporter binding. In short, it runs like this: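 The apparent KD reported per design is the median over clusters of curve fits to normalised cluster fluorescence. The RNA switches were transcribed on Illumina chips by stalled E. coli RNA polymerase. SNAP-549-labelled MS2 coat protein was titrated from 0.7 or 1.5 nM, doubling up to 3 µM, in Tris-HCl pH 7.5 buffer containing KCl, MgCl2, BSA, DTT, tRNA and Tween-20, with no input, 200 uM small-molecule ligand, or an oligonucleotide input.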

[1] abbreviates: Eterna round: R95, input ligand: FMN 200 uM.
Where [2] appears, read: Eterna round: R95, input ligand: microRNA oligo, concentration not stated.
Setting [3] is: Eterna round: R95, input ligand: none.

Consider “GGUCAAGAACAGCUCCGCGCUGUCCUUGACCGCUCAUUUACAUGAGGAUCACCCAUGUUUUUUGCUUGUCUUGUUUC [Estetexequ] (puzzle: Sensor v3, turn-off variant 2)”, for which the “apparent KD of MS2 coat protein” value runs as follows: under setting [1], 21 nM; under setting [2], 98.7 nM; under setting [3], 23.8 nM.

For the sequence “AACUGUGAGGCAGGAUAUGAAGCAUGGGCCGCGUGAUAAUACAUGAGGAUCACCCAUGUAGGGAUUCAGAAGGGCCCAGAGCAC [Atusveer] (Eterna round: R96, puzzle: Exclusion NG 2)”, the “apparent KD of MS2 coat protein” value reads like this: (input ligand: FMN 200 uM) 20.4 nM; (input ligand: microRNA oligo, concentration not stated) 11.5 nM; (input ligand: none) 18.2 nM.

As to “ACGUAUAGAGGAUAUAGUGAAUAUUACAUGAGGAUCACCCAUGUUCUUCAAAGUAUAUUUCUAGAAGGCUAAUGAA [EX-5 Malc#10] (puzzle: Exclusion 5)”, the “apparent KD of MS2 coat protein” value under setting [2] worked out at 35.5 nM.

Turning to “UGCCGUAGAGGAUAUACAUUGAAUAAGAUUCAUGUAGAACUACAUGAGGAUCACCCAUGUAGAAGGCUAUGGCU [JL-ex2-4.38 Eli mod] (Eterna round: R97, puzzle: Exclusion 2)”, the “apparent KD of MS2 coat protein” value by setting is: (input ligand: FMN 200 uM) 29.5 nM; (input ligand: none) 16.9 nM.

For the sequence “ACCUUACAUGAGGAUCACCCAUGUCAGGAUAUCUCGGGCGGCCAAGGGCCGGCCGCCCAGAGAAGGGACGAGGA [Inusla] (puzzle: Exclusion 1)”, under setting [2], the “apparent KD of MS2 coat protein” value is 12.1 nM.

“AGUGCUGACACGUUGGUGUUAGUACCAUAAGCUUGUGAUACAUGAGGAUCACCCAUGUCCUCAUAAGCUCGUCUUAU [salish99_TOv2_r2_097] (puzzle: Sensor v3, turn-off variant 2)”: the “apparent KD of MS2 coat protein” value turned out to be 28.6 nM under setting [1], 669 nM under setting [2] and 26.8 nM under setting [3].

With “UUUUGACAUGAGGAUCACCCAUGUGAGGAUAUGGCUUGUGGCGCGUCUGUGUGGCGGGUUAGAAGGCGCGUGCG [-24.6, -21.7 kcal, A 16%] (Eterna round: R97, puzzle: Exclusion 1)”, the “apparent KD of MS2 coat protein” value runs as follows: (input ligand: FMN 200 uM) 30.8 nM; (input ligand: none) 38.3 nM.

Consider “UUUUUACAUGAGGAUCACCCAUGUCAGGAUAUGUUUAUAUUUUAUUAUUUUAUUUUUUACAGAAGGGACUAUUA [My solution] (puzzle: Exclusion 1)”, for which the “apparent KD of MS2 coat protein” value under setting [2] is 123 nM.

On to “UAGUGACAUGAGGAUCACCCAUGUGAGGAUAUAGUGAGAGAAAAAAGGAGAGAGAGGACUAGAAGGCACAGUGA [JR_Exclu1_Sub032] (puzzle: Exclusion 1)”, for which the “apparent KD of MS2 coat protein” value under setting [1] turned out to be 76.6 nM, the “apparent KD of MS2 coat protein” value under setting [2] stood at 52.4 nM and the “apparent KD of MS2 coat protein” value under setting [3] is 92.7 nM.

As for “AGUACUAACACGAAAGUGUUAGUACAAUAAGCUAGUGGAACAUGAGGAUCACCCAUGUCCUCAUUAGCUCGUCUUAA [Mat - Sensor v3 - Turn-off var 2 - D34] (puzzle: Sensor v3, turn-off variant 2)”, the “apparent KD of MS2 coat protein” value is 14.2 nM under setting [1], 29.2 nM under setting [2] and 15.5 nM under setting [3].

As for “GGGAGUGAAGGAUAUACAUGAGGAUCACCCAUGUGGGAGGAGAGAGGUGAGGAGGCUGGUAGAAGGUCAGGAUG [JR_Exclusion3_Sub006] (puzzle: Exclusion 3)”, under setting [2], the “apparent KD of MS2 coat protein” value is 48.3 nM.

For the sequence “GAUCAGCUUGUGAGGAUAUCCGGGCUUAAAGGCUAGGAGAAGGUACAUGAGGAUCACCCAUGUAGAGUCCUGGG [Zageesen] (puzzle: Brourd's mod of Exclusion 4)”, the “apparent KD of MS2 coat protein” value under setting [2] was 50.4 nM.

As for “CAUUAGCAAGCGAGAUCCCACAUGAGGAUCACCCAUGUGCUCGUCUUAUAAGGUACUGUGACGAGAGUCACGGUACC [Mat - Sensor, turn-off var - Eli Mod - D42] (Eterna round: R97, puzzle: Sensor, turn-off variant 1)”, the “apparent KD of MS2 coat protein” value (input ligand: FMN 200 uM) worked out at 15.2 nM and the “apparent KD of MS2 coat protein” value (input ligand: none) was determined as 16.1 nM.
